Results: PMC4842197, “Preclinical in vivo application of ^152Tb-DOTANOC: a radiolanthanide for PET imaging” (EJNMMI Research, 2016)
Bridge positions count the residues as written; N and C are the ends. Square brackets hold non-standard residues; d marks the D form. Peptide text beside a SMILES is read from it. * marks the point of attachment. DOTA = O=C(O)CN1CCN(CC(=O)O)CCN(CC(=O)*)CCN(CC(=O)O)CC1; 1Nal = N[C@@H](Cc1cccc2ccccc12)C(=O)O; Thr(ol) = C[C@@H](O)[C@H](N)CO

Experiments:
AR42J tumor-bearing mice = test: in vivo; settings: female, CD-1 Foxn-1/nu nude, mouse, iv, 5 nmol per mouse, 5 h
Procedure: (§1) AR42J tumor cells, a rat exocrine pancreatic tumor cell line which is known to express the somatostatin receptor, were obtained from the European Collection of Cell Cultures (ECACC). The cells were cultured in RPMI 1640 medium, supplemented with 10 % fetal calf serum, L-glutamine, and antibiotics under standard conditions in a humidified atmosphere with 5 % CO2 at 37 °C. Routine culture was performed by trypsinization of the cells twice a week. To inoculate the animals, the cells were detached using trypsin, centrifuged, and resuspended in PBS at a concentration of 5 × 10^6 cells/100 μL.
(§2) In vivo experiments were approved by the local veterinary department and conducted in accordance with the Swiss law of animal protection. Female nude mice (CD-1 Foxn-1/nu) were purchased from Charles River Laboratories (Sulzfeld, Germany). The animals were fed with a standard rodent chow ad libitum (Kliba Nafag, Kaiseraugst, Switzerland).
(§3) About 2 weeks prior to biodistribution and imaging studies, the mice were inoculated with AR42J tumor cells by subcutaneous injection of the cell suspension (5 × 10^6 cells/100 μL) on each shoulder.
(§4) Mice were euthanized at pre-determined time points between 30 min and 22 h after injection of the radioconjugate. […] Selected tissues and organs were collected, weighed, and counted for radioactivity using a γ-counter (Packard Canberra Cobra II, USA). The results were listed as a percentage of the injected activity per gram of tissue mass (% IA/g), using counts of a defined volume of the original injection solution measured at the same time.

in vivo = settings: female, CD-1 Foxn-1/nu nude, mouse, iv, total radioactivity, Biodistribution
Procedure: as §1, §2, §3, §4

[1] = 2.5 nmol per mouse (5 MBq), AR42J tumor
[2] = 2.5 nmol per mouse (5 MBq), Blood
[3] = 2.5 nmol per mouse (5 MBq), Bone
[4] = 2.5 nmol per mouse (5 MBq), Brain
[5] = 2.5 nmol per mouse (5 MBq), Heart
[6] = 2.5 nmol per mouse (5 MBq), Lung

## C[C@@H](O)[C@@H]1NC(=O)[C@H](CCCCN)NC(=O)[C@@H](Cc2c[nH]c3ccccc23)NC(=O)[C@H](Cc2cccc3ccccc23)NC(=O)[C@@H](NC(=O)[C@@H](Cc2ccccc2)NC(=O)CN2CCN(CC(=O)O)CCN(CC(=O)O)CCN(CC(=O)O)CC2)CSSC[C@@H](C(=O)N[C@H](CO)[C@@H](C)O)NC1=O [^177Lu-DOTANOC, metal not drawn] ({DOTA}-[dF]C[1Nal][dW]KTC[Thr(ol)]; disulfide 2-7)
AR42J tumor-bearing mice
  Biodistribution, AR42J Tumor: ~ 4 % IA/g
In vivo; 0.5 nmol peptide, Adrenals
  tissue uptake at 5 h: 0.7 ± 0.13 %ID/g
In vivo; 0.5 nmol peptide, Kidneys
  tissue uptake at 5 h: 6.63 ± 0.1 %ID/g
In vivo; 0.5 nmol peptide, Lung
  tissue uptake at 5 h: 1.18 ± 0.36 %ID/g
In vivo; 0.5 nmol peptide, Spleen
  tissue uptake at 5 h: 0.24 ± 0.03 %ID/g
In vivo; 0.5 nmol per mouse, AR42J Tumor
  tissue uptake at 5 h: 25.3 ± 4.14 %ID/g
In vivo; 0.5 nmol, Blood
  tissue uptake at 5 h: 0.09 ± 0.01 %ID/g
In vivo; 0.5 nmol, Bone
  tissue uptake at 5 h: 0.33 ± 0.08 %ID/g
In vivo; 0.5 nmol, Brain
  tissue uptake at 5 h: 0.01 %ID/g
In vivo; 0.5 nmol, Heart
  tissue uptake at 5 h: 0.08 ± 0.01 %ID/g
In vivo; 0.5 nmol, Liver
  tissue uptake at 5 h: 0.34 ± 0.01 %ID/g
In vivo; 0.5 nmol, Muscle
  tissue uptake at 5 h: 0.02 ± 0.01 %ID/g
In vivo; 0.5 nmol, Stomach
  tissue uptake at 5 h: 3.78 ± 0.28 %ID/g
In vivo; [1]
  tissue uptake at 0.5 h: 9.02 ± 0.33 %ID/g
  tissue uptake at 2 h: 8.32 ± 0.47 %ID/g
  tissue uptake at 5 h: 8.45 ± 1.04 %ID/g
  tissue uptake at 16 h: 5.48 ± 0.98 %ID/g
  tissue uptake at 22 h: 4.51 ± 0.37 %ID/g
In vivo; [2]
  tissue uptake at 0.5 h: 2.52 ± 0.65 %ID/g
  tissue uptake at 2 h: 0.09 ± 0.01 %ID/g
  tissue uptake at 5 h: 0.06 ± 0.01 %ID/g
  tissue uptake at 16 h: 0.07 ± 0.01 %ID/g
  tissue uptake at 22 h: 0.03 %ID/g
In vivo; [3]
  tissue uptake at 16 h: 0.12 ± 0.05 %ID/g
  tissue uptake at 22 h: 0.08 ± 0.01 %ID/g
In vivo; [4]
  tissue uptake at 0.5 h: 0.06 ± 0.01 %ID/g
  tissue uptake at 2 h: 0.01 %ID/g
  tissue uptake at 5 h: 0.02 %ID/g
  tissue uptake at 16 h: 0.02 ± 0.01 %ID/g
  tissue uptake at 22 h: 0.01 %ID/g
In vivo; [5]
  tissue uptake at 0.5 h: 1.34 ± 0.35 %ID/g
  tissue uptake at 2 h: 0.08 ± 0.01 %ID/g
  tissue uptake at 5 h: 0.07 ± 0.01 %ID/g
  tissue uptake at 16 h: 0.07 ± 0.01 %ID/g
  tissue uptake at 22 h: 0.03 %ID/g
In vivo; [6]
  tissue uptake at 0.5 h: 3.04 ± 0.47 %ID/g
  tissue uptake at 2 h: 0.45 ± 0.03 %ID/g
  tissue uptake at 5 h: 0.41 ± 0.04 %ID/g
In vivo; 2.5 nmol per mouse, Adrenals
  tissue uptake at 0.5 h: 1.38 ± 0.32 %ID/g
  tissue uptake at 2 h: 0.28 ± 0.14 %ID/g
  tissue uptake at 16 h: 0.51 ± 0.4 %ID/g
  tissue uptake at 22 h: 0.42 ± 0.18 %ID/g
In vivo; 2.5 nmol per mouse, Bone
  tissue uptake at 0.5 h: 1.13 ± 0.26 %ID/g
  tissue uptake at 2 h: 0.17 ± 0.01 %ID/g
  tissue uptake at 5 h: 0.12 ± 0.02 %ID/g
In vivo; 2.5 nmol per mouse, Intestines
  tissue uptake at 0.5 h: 0.94 ± 0.12 %ID/g
  tissue uptake at 2 h: 0.25 ± 0.04 %ID/g
  tissue uptake at 5 h: 0.25 ± 0.03 %ID/g
  tissue uptake at 16 h: 0.16 ± 0.01 %ID/g
In vivo; 2.5 nmol per mouse, Kidneys
  tissue uptake at 0.5 h: 13 ± 1.85 %ID/g
  tissue uptake at 2 h: 7.67 ± 0.51 %ID/g
  tissue uptake at 5 h: 9.1 ± 1.66 %ID/g
  tissue uptake at 16 h: 6.13 ± 1.63 %ID/g
  tissue uptake at 22 h: 4.8 ± 0.19 %ID/g
In vivo; 2.5 nmol per mouse, Liver
  tissue uptake at 0.5 h: 1.43 ± 0.17 %ID/g
  tissue uptake at 2 h: 0.52 ± 0.04 %ID/g
  tissue uptake at 5 h: 0.53 ± 0.1 %ID/g
  tissue uptake at 16 h: 0.27 ± 0.05 %ID/g
  tissue uptake at 22 h: 0.2 ± 0.02 %ID/g
In vivo; 2.5 nmol per mouse, Lung
  tissue uptake at 16 h: 0.27 ± 0.05 %ID/g
In vivo; 2.5 nmol per mouse, Muscle
  tissue uptake at 0.5 h: 0.48 ± 0.16 %ID/g
  tissue uptake at 2 h: 0.02 %ID/g
  tissue uptake at 5 h: 0.02 ± 0.01 %ID/g
  tissue uptake at 16 h: 0.03 %ID/g
  tissue uptake at 22 h: 0.01 %ID/g
In vivo; 2.5 nmol per mouse, Pancreas
  tissue uptake at 0.5 h: 1.99 ± 0.07 %ID/g
  tissue uptake at 2 h: 1.09 ± 0.17 %ID/g
  tissue uptake at 5 h: 0.88 ± 0.11 %ID/g
  tissue uptake at 16 h: 0.34 ± 0.05 %ID/g
  tissue uptake at 22 h: 0.25 ± 0.03 %ID/g
In vivo; 2.5 nmol per mouse, Spleen
  tissue uptake at 0.5 h: 0.77 ± 0.03 %ID/g
  tissue uptake at 5 h: 0.18 ± 0.02 %ID/g
  tissue uptake at 22 h: 0.09 ± 0.01 %ID/g
In vivo; 2.5 nmol per mouse, Stomach
  tissue uptake at 0.5 h: 1.95 ± 0.23 %ID/g
  tissue uptake at 2 h: 1.14 ± 0.04 %ID/g
  tissue uptake at 5 h: 1.21 ± 0.55 %ID/g
  tissue uptake at 16 h: 0.68 ± 0.09 %ID/g
  tissue uptake at 22 h: 0.6 ± 0.22 %ID/g
In vivo; 5 nmol peptide, Adrenals
  tissue uptake at 5 h: 0.18 ± 0.05 %ID/g
In vivo; 5 nmol peptide, Kidneys
  tissue uptake at 5 h: 7 ± 0.69 %ID/g
In vivo; 5 nmol peptide, Lung
  tissue uptake at 5 h: 0.28 ± 0.01 %ID/g
In vivo; 5 nmol peptide, Spleen
  tissue uptake at 5 h: 0.11 ± 0.02 %ID/g
In vivo; 5 nmol per mouse, AR42J Tumor
  tissue uptake at 5 h: 3.82 ± 0.2 %ID/g
In vivo; 5 nmol, Blood
  tissue uptake at 5 h: 0.06 ± 0.01 %ID/g
In vivo; 5 nmol, Bone
  tissue uptake at 5 h: 0.09 ± 0.02 %ID/g
In vivo; 5 nmol, Brain
  tissue uptake at 5 h: 0.01 %ID/g
In vivo; 5 nmol, Heart
  tissue uptake at 5 h: 0.06 %ID/g
In vivo; 5 nmol, Intestines
  tissue uptake at 5 h: 0.14 ± 0.01 %ID/g
In vivo; 5 nmol, Liver
  tissue uptake at 5 h: 0.36 ± 0.04 %ID/g
In vivo; 5 nmol, Muscle
  tissue uptake at 5 h: 0.02 %ID/g
In vivo; 5 nmol, Pancreas
  tissue uptake at 5 h: 0.41 ± 0.01 %ID/g
In vivo; 5 nmol, Stomach
  tissue uptake at 5 h: 0.41 ± 0.05 %ID/g
